In the series the test system is T1, MIT 11-12x.40 meganuclease (MIT 11-12) (artificial (I-CreI derived, Chlamydomonas reinhardtii)).
T1 sequence: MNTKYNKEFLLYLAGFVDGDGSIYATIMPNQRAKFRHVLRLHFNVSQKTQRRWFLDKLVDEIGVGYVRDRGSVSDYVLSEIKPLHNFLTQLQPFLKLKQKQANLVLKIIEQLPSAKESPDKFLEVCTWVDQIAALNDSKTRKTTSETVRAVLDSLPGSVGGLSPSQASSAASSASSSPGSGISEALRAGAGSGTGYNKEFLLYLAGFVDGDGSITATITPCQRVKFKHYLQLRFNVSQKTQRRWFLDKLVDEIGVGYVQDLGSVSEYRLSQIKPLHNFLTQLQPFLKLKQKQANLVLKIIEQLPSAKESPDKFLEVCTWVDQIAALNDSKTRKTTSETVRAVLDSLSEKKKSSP
Nature of the series: cell_activity. Particulars: CHO split-GFP recombination assay, 48 h.

For wild-type mtDNA tRNA-Ala target site, the activity is < 5 % GFP+ cells.

Source of the values: US20240200046.
